The target in test [1] is T1, full-length untagged human GPNMB expressed on cells (human, UniProt Q14956 23-572).
T1 construct: also used here for GPNMB on human monocyte-derived macrophages in the functional assays; also called huGPNMB; Freestyle293-huGPNMB+
T1 sequence: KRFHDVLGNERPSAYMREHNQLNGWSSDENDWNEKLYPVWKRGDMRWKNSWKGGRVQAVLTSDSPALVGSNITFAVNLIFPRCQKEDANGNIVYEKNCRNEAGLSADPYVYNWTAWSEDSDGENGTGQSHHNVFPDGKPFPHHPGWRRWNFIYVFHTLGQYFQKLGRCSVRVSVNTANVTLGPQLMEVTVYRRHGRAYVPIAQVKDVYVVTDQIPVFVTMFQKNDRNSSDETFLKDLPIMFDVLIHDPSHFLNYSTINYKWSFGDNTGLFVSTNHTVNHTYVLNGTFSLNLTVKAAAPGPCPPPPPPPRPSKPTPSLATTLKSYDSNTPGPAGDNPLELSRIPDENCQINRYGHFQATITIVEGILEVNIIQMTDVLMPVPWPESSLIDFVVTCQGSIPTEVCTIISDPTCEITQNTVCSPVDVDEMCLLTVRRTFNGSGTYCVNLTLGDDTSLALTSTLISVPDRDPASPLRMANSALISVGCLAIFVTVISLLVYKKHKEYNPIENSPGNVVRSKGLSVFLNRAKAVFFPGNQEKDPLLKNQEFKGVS
Kind of test: FACS, FS293-huGPNMB+ cells. The protocol:
Recombinant anti-GPNMB antibodies of the present disclosure were examined for their ability to bind human and/or mouse GPNMB expressed on Freestyle293-huGPNMB+ or B16F10 cells, respectively. B16F10 cells are a murine melanoma cell line from a C57BL/6J mouse that endogenously express high levels of mouse GPNMB. The antibodies were also tested for their ability to bind to a human macrophage cell line (U937 cells) engineered to express human GPNMB. Cells were harvested, plated at 100,000 cells/well in a 96-well round bottom plate, and incubated in 100 μl FACS buffer (PBS containing 2% FBS, 2 mM EDTA) containing anti-GPNMB monoclonal antibodies of the present disclosure for 30 minutes on ice. Cells were then washed and incubated in 100 ul FACS buffer containing 1 μg/ml APC-conjugated anti-human IgG secondary antibody for 30 minutes in ice. Cells were washed twice in cold FACS buffer and acquired on a BD FACS Canto. Data analysis and calculation of MFI values was performed with FlowJo (TreeStar) software version 10.0.7.
Importantly, several anti-GPNMB antibodies of the present disclosure also bound to the human macrophage cell line U937 cells engineered to express human GPNMB (U937/huGPNMB+) (FIG. 2C). In FIG. 2C, the first data point in each pair corresponds to U937/huGPNMB+ cells, and the second data point in each pair corresponds to U937/huGPNMB− cells. No anti-GPNMB antibodies bound to U937 cells deficient in human GPNMB expression (U937/huGPNMB−).
For orientation: A flow cytometer gives signals particle by particle.

The target in test [2] is T2, soluble human GPNMB (recombinant extracellular domain) (human, UniProt Q14956 23-498).
T2 construct: also called huGPNMB; recombinant human GPNMB extracellular domain; not shown: C-terminal polyhistidine or Avi-His tag
T2 sequence: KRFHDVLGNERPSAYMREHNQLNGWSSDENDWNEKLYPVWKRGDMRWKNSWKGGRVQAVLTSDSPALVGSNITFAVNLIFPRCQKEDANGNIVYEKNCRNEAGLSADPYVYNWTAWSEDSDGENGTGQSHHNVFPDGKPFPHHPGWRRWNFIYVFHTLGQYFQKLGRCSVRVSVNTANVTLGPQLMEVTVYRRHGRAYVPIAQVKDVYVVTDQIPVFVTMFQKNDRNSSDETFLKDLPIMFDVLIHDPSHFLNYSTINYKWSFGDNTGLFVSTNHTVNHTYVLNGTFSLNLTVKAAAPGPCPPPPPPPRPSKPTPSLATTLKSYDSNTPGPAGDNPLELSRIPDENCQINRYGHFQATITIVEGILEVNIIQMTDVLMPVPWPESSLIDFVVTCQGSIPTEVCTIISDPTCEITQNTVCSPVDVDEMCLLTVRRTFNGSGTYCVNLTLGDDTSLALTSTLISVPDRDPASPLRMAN
Kind of test: SPR Carterra, Ab immobilized. The protocol: Binding kinetics of human anti-GPNMB IgG1 antibodies of the present disclosure to human, cynomolgus, and mouse GPNMB were evaluated using a Carterra LSA instrument (Carterra, Salt Lake City, UT). […] A HC200M sensor chip (Carterra) was activated using the single channel flow cell with a 7-minute injection of a 1:1:1 mixture of 100 mM MES pH 5.5, 100 mM sulfo-NHS, 400 mM EDC (all reconstituted in MES pH 5.5; 100 μl of each mixed in vial immediately before running assay). After switching to the multi-channel array flow cell, the antibodies were injected over the activated chip in a 96-spot array for 15 minutes. The remaining unconjugated active groups on the chip were then blocked by injecting 1M Ethanolamine pH 8.5 (Carterra) for 7 minutes using the single channel flow cell.
After priming with running buffer (HBS-EP+, Teknova) with 0.5 mg/ml BSA (Sigma), the immobilized anti-GPNMB antibodies were tested for their ability to bind to several forms of recombinant GPNMB extracellular domain, including human, cynomolgus, and mouse orthologs as described above. Estimates of affinity were generated by injecting each analyte over the entire antibody array using the single channel flow cell. GPNMB analytes were diluted to 2.5, 7.4, 22, 67, 200, and 600 nM in running buffer, and injected in serial from lowest to highest concentration without regeneration. Two buffer blanks were run between each series (one species per series). Data were processed and analyzed using Kinetics high-throughput kinetics analysis software (Carterra).

These results are taken from patent US20250270343A1 (Alector, published 2025).

One may read the Kd as the free concentration of one partner at which half of the binding sites on the other are occupied at equilibrium, for simple one-to-one binding. Broadly, the koff is a measure of how fast the partners let go of each other. As usually defined, the kon is the rate constant with which the complex forms.

B1: anti-GPNMB antibody GPN-34 (antibody, human IgG1, V domains shown)
VH: EVKLVESGGGLVQPGRSLKLSCAASGFNFYDYWMGWVRQAPGKGLEWIGEINKDSRTINYTPFLKDRFTISRDNAQNTLYLQMSKLGSEDTAIYYCAREGRVPFDYWGQGVMVTVSS
VL: DIQMTQSPSSMSVSLGDTVTIPCRASQDVGSYVNWFQQKPGKSPRHMIYRATNLADGVPSRFSGSRSGADYSLTISSLESEDVADYHCQQYAEYPLTFGSGTKLEIK
notes: chimeric
Consider B1, for which the “MFI fold over background” value in test [1] was 125 fold. Moreover, in test [2], the Kd amounted to 0.4 nM, the koff was found to be 6.3e-05 s⁻¹ and the kon stood at 190000 M⁻¹ s⁻¹.

B2: anti-GPNMB antibody GPN-41 (antibody, human IgG1, V domains shown)
VH: QLQLQQSGTEVVKPGASVKIPCKASGYAFSSYWMNWVKQRPGKGLEWIGQIYPGDGDTNDNGKFEGKATLTVDKSSNTAYIQLSSLTSEDSAVYFCARSPLHLRGSMDYWGQGTSVTVSS
VL: SIVMTQTPKFLLVSAGDRVTITCKASQSVSNDVAWFQQKPGQSPELLIYSASNRYTGVPDRFTASGYGTDFTFTISAVQAEDLAVYFCQQNYYSPFTFGGGTRLEIK
notes: chimeric
For B2, in test [1], the “MFI fold over background” value is 23.6 fold. In addition, in test [2], the Kd was found to be 0.441 nM, the koff worked out at 8.2e-05 s⁻¹ and the kon was determined as 200000 M⁻¹ s⁻¹.

B3: anti-GPNMB antibody GPN-03 (antibody, human IgG1, V domains shown)
VH: QVQLQQSGPELVKPGASVKLSCKASGYTFTNYYMYWVKQRPGQGLEWIGEINPRNGGTNFNEKFKSKATLTVDKSSSTAYMQLSSLTFEDSAVYYCTTGLAYWGQGTLVTVSA
VL: DVVMTQTPLSLPVSLGDQASISCRSSQSLVHSDGNTYLHWYLQKPGQSPKLLIYKVSTRFSGVPDRFSGSGSGTDFTLKISRVEAEDLGVYFCSQSTHVPWTFGGGTKLEIK
notes: chimeric
Turning to B3, in test [1], the “MFI fold over background” value came to 89.2 fold. For the same molecule, in test [2], the Kd stood at 29.6 nM, the koff turned out to be 0.0019 s⁻¹ and the kon was determined as 100000 M⁻¹ s⁻¹.

B4: anti-GPNMB antibody GPN-06 (antibody, human IgG1, V domains shown)
VH: QVQLQQSGAELVKPGASVKLSCKASGYTFTNYYMYWVKQRPGQGLEWIGEINTRNGGTNFNEKFKSKATLTVDKSSSTAYMQLSSLTSEDSAVYYCTTGFAYWGQGTLVTVSA
VL: DIQMTQSPASLSASVGETVTITCRASENIYSYLVWYQQNQGKSPQLLVYNAKTLAEGVPSRFSGSGSGTQFSLKINSLQPEDFGTYYCQHHYGTPFTFGSGTKLEIK
notes: chimeric
Turning to B4, the “MFI fold over background” value in test [1] came to 66.4 fold. Also, in test [2], the Kd is 73.9 nM, the koff was determined as 0.0032 s⁻¹ and the kon is 54000 M⁻¹ s⁻¹.

B5: anti-GPNMB antibody GPN-08 (antibody, human IgG1, V domains shown)
VH: QVQLQQPGAELVKPGASVKLSCRASGYTFTSYWLHWVKQRPGQGLEWIGEINPSDGRTNYIEKVKTKATLTVDKSSSTAYMQLSSLTSEDSAVYYCARSGGNYAWFAYWGQGTLVTVSA
VL: DIVMTQSHKFMSTSVGDRVSITCKASQDVSPSVAWYQQRPGQSPKLLIYSASYRYTGVPDRFTGSGSGTDFTFTISSVQAEDLAVYYCQQHYSIPLTFGAGTKLELK
notes: chimeric
B5: the “MFI fold over background” value in test [1] was determined as 74.4 fold. For the same molecule, in test [2], the Kd came to 36 nM, the koff worked out at 0.0014 s⁻¹ and the kon was 40000 M⁻¹ s⁻¹.

B6: anti-GPNMB antibody GPN-52 (antibody, human IgG1, V domains shown)
VH: DVQLQESGPGLVKPSQTVFLTCTVTGISITTGNYRWSWIRQFPGNKLEWIGYIYYSGTITYNPSLTSRITITRDTPKNEFFLEMNSLTAEDTATYYCARDLTHWYFDVWGTGTTVTVSS
VL: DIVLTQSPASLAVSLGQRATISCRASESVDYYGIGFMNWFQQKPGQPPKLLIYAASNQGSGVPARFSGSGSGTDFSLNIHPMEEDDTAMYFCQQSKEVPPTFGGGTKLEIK
notes: chimeric
In the case of B6, the “MFI fold over background” value in test [1] was found to be 7.6 fold. Also, in test [2], the equilibrium dissociation constant (Kd) came to 37.9 nM, the dissociation rate constant (koff) is 0.0032 s⁻¹ and the kon worked out at 86000 M⁻¹ s⁻¹.

B7: anti-GPNMB antibody GPN-61 (antibody, human IgG1, V domains shown)
VH: DVQLQESGPGLVKPSQTVFLTCTVTGISITTGNYRWSWIRQFPGNKLEWIGYIYYSGTITYNPSLTSRTTITRDTPKNQFFLEMSSLTAEDTATYFCARDLRHWYFDVWGTGTTVTVSS
VL: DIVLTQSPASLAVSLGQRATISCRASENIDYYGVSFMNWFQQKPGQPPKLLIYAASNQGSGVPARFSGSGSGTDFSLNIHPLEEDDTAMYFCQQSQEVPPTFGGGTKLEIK
notes: chimeric
Consider B7, for which the “MFI fold over background” value in test [1] turned out to be 18.6 fold. Moreover, in test [2], the Kd was 50.1 nM, the koff stood at 0.0035 s⁻¹ and the kon came out at 71000 M⁻¹ s⁻¹.

B8: anti-GPNMB antibody GPN-37 (antibody, human IgG1, V domains shown)
VH: EVQLVESGGGLVQPGRSLKLSCAASGFTFSSKSGMAWVRQAPTKGLEWVASISNGGGDTYYRDSVKGRFTISRDNAKNTQYLQMDSLRPEDTATYYCARHRDYGYDAYFDYWGQGVMVTVSS
VL: DIQMTQSPASLSASLGETVTIECLASEDIYSSLAWYQQKPGKSPQLLIYDASSLQDGVPSRFSGSESGTQYSLEINSLQSEDAATYFCQQHHDYPYTFGAGTKLELK
notes: chimeric
In the case of B8, the “MFI fold over background” value in test [1] was determined as 105 fold. Moreover, in test [2], the equilibrium dissociation constant (Kd) amounted to 1 nM, the koff was determined as 0.00011 s⁻¹ and the kon was 110000 M⁻¹ s⁻¹.

B9: anti-GPNMB antibody GPN-48 (antibody, human IgG1, V domains shown)
VH: QVQLQQSGPELVKPGASVKLSCRASGYGFSSFWMNWVKQRPGKGLEWIGRIYPGKGDTLYNGKFKDKATLTADESSSTAYMQLSSLTSEDSAVYFCARSIYYYDYWYFDVWDTGTTVTVSS
VL: DIVMTQSHKFMSTSVGDRVNITCKASQDVNSAIAWYQQKPGQSPKLLIYSASYRFIGVPDRFTGSGSGTGFTFTISSVQAEDLAVYYCQQHYTTPLTFGAGTKLELK
notes: chimeric
On to B9, for which, in test [1], the “MFI fold over background” value turned out to be 9.7 fold. Further, in test [2], the Kd was determined as 1.1 nM, the koff came out at 0.00037 s⁻¹ and the on-rate (kon) turned out to be 330000 M⁻¹ s⁻¹.

B10: anti-GPNMB antibody GPN-38 (antibody, human IgG1, V domains shown)
VH: QVQLQQPGAELVRPGTSVRLSCKASGYTFTSYWIHWVKQRPGRGLEWIGVIDPSDSYTNYNQQFNVKATLTVDTSSSAAYMQLSSLTSEDSAVYYCARGLITAVNWYFDVWGTGTTVTVSS
VL: DIQMTQSPASLSTSVGEIVTITCRASENIYSYLTWYQQKQGKSPQLLVYNAKTLAEGVPSRFSGSGSGTQFSLKINSLQPEDFGTYYCQHHYGTPLTFGSGTKLEIK
notes: chimeric
For the molecule B10, the “MFI fold over background” value in test [1] was 20.7 fold. Moreover, in test [2], the Kd came out at 4.92 nM, the koff came to 0.00053 s⁻¹ and the kon stood at 110000 M⁻¹ s⁻¹.

B11: anti-GPNMB antibody GPN-35 (antibody, human IgG1, V domains shown)
VH: EVQLVESGGGSVRPGRSLKLSCAAAGFTFSDYYMTWVRQAPTKGLEWVASINHDGGGTYYRDSVKGRFTISRDNARSSLYLQMDSLRSEDTGTYYCTTRAGWHWGQGVMVTVSS
VL: DIQMTQSPASLSASLGETVSIECLASEDIYNYLTWYQQKPGKSPQVLIYSASGLQDGVPSRFSGSGSGRQYSLKINGLESEDAATYFCLQDSEYPLTFGSGTKLEIK
notes: chimeric
On to B11, for which the “MFI fold over background” value in test [1] worked out at 104 fold. For the same molecule, in test [2], the Kd is 21 nM, the koff came out at 0.0015 s⁻¹ and the kon came to 71000 M⁻¹ s⁻¹.
